No end group written: not given here.
B1: SpGpsB_(4-63) (domain or fragment, S. pneumoniae R6, UniProt Q8DR57 4-63, looked up)
chain: IIFSAKDIFEQEFGREVRGYNKVEVDEFLDDVIKDYETYAALVKSLRQEIADLKEELTRK
notes: GpsB, Streptococcus pneumoniae R6, residues 4-63; also called slightly truncated form of the N-terminal domain of SpGpsB; source: E. coli, purified (Ni-NTA, TEV, Superdex 75); not shown: His6, N-terminal, cleaved
B4: BsGpsB_(1-68) (domain or fragment, B. subtilis, UniProt P0CI74 1-68, looked up)
chain: MLADKVKLSAKEILEKEFKTGVRGYKQEDVDKFLDMIIKDYETFHQEIEELQQENLQLKKQLEEASKK
notes: GpsB, Bacillus subtilis, residues 1-68; also called N-terminal domain of BsGpsB; source: E. coli, purified (Ni-NTA, thrombin, size exclusion)

Columns and labels:
[1] = biological target: the molecule itself; assay: crystal structure; co-crystallisation of GpsB N-terminal domain with PBP peptide, 1:5 molar ratio protein:peptide, room temperature
SpGpsB_(4-63) = biological target: B1; assay: as above; details: both partners purified
[2] = biological target: T1, full-length BsGpsB (Bacillus subtilis GpsB) (B. subtilis, UniProt P0CI74 1-98); assay: fluorescence polarisation; GpsB protein titrated into fluorescently labelled peptide; 10 mM Tris.HCl pH 8.0, 250 mM NaCl, 0.1% reduced Triton X-100; fit to a 1:1 interaction model; details: both partners purified
T1 construct: GpsB, Bacillus subtilis; purification of the full-length protein is not described here; source: E. coli BL21(DE3) used for recombinant protein production)
T1 sequence (looked up): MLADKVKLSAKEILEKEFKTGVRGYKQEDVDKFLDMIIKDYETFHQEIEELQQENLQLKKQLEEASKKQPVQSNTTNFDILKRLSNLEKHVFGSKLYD

BsGpsB_(1-68) [3] = biological target: B4; assay: as above; details: both partners purified
[4] = biological target: T2, BsPBP1_(1-32)^Arg8Lys, TAMRA-labelled at position 16 (B. subtilis, UniProt P39793 1-32, Ser16Cys | Arg8Lys, TAMRA (maleimide) at position 16); assay: as above; details: both partners purified
T2 construct: PBP1, Bacillus subtilis, residues 1-32; also called BsPBP1^Arg8Lys; source: E. coli, His-tagged MBP fusion purified (Ni-NTA), labelled, TEV-cleaved, ultrafiltration
T2 peptide (looked up): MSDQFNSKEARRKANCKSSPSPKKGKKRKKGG

[5] = biological target: T3, BsPBP1_(1-32)^Ser7Ala, TAMRA-labelled at position 16 (B. subtilis, UniProt P39793 1-32, Ser16Cys | Ser7Ala, TAMRA (maleimide) at position 16); assay: as above; details: both partners purified
T3 construct: PBP1, Bacillus subtilis, residues 1-32; source: E. coli, His-tagged MBP fusion purified (Ni-NTA), labelled, TEV-cleaved, ultrafiltration
T3 peptide (looked up): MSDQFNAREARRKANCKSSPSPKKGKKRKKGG

[6] = biological target: T4, BsPBP1_(1-32)^Arg8Ala, TAMRA-labelled at position 16 (B. subtilis, UniProt P39793 1-32, Ser16Cys | Arg8Ala, TAMRA (maleimide) at position 16); assay: as above; details: both partners purified
T4 construct: PBP1, Bacillus subtilis, residues 1-32; also called BsPBP1^Arg8Ala; source: E. coli, His-tagged MBP fusion purified (Ni-NTA), labelled, TEV-cleaved, ultrafiltration
T4 peptide (looked up): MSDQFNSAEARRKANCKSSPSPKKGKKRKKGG

[7] = biological target: T5, BsPBP1_(1-32)^Arg11Ala, TAMRA-labelled at position 16 (B. subtilis, UniProt P39793 1-32, Ser16Cys | Arg11Ala, TAMRA (maleimide) at position 16); assay: as above; details: both partners purified
T5 construct: PBP1, Bacillus subtilis, residues 1-32; also called BsPBP1^Arg11Ala; source: E. coli, His-tagged MBP fusion purified (Ni-NTA), labelled, TEV-cleaved, ultrafiltration
T5 peptide (looked up): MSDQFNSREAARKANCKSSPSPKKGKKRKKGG

[8] = biological target: T6, BsPBP1_(1-32)^Ala10Pro, TAMRA-labelled at position 16 (B. subtilis, UniProt P39793 1-32, Ser16Cys | Ala10Pro, TAMRA (maleimide) at position 16); assay: as above; details: both partners purified
T6 construct: PBP1, Bacillus subtilis, residues 1-32; source: E. coli, His-tagged MBP fusion purified (Ni-NTA), labelled, TEV-cleaved, ultrafiltration
T6 peptide (looked up): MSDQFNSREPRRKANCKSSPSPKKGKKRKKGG

BsGpsB_(1-68) [9] = biological target: B4; assay: fluorescence polarisation; details: both partners purified
[10] = biological target: T7, SpPBP2a_(23-45)^Arg31Lys, TAMRA-labelled (S. pneumoniae R6, UniProt Q8DNB6 23-45, Gly43 to cysteine | Arg31Lys, TAMRA (maleimide) label); assay: fluorescence polarisation; details: both partners purified
T7 construct: also called SpPBP2a^Arg31Lys; source: E. coli, His-tagged MBP fusion purified (Ni-NTA), labelled, TEV-cleaved, ultrafiltration
T7 peptide: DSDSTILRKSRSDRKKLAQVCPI

[11] = biological target: T8, SpPBP2a_(23-45)^Arg31Lys,Arg33Lys, TAMRA-labelled (S. pneumoniae R6, UniProt Q8DNB6 23-45, Gly43 to cysteine | Arg31Lys | Arg33Lys, TAMRA (maleimide) label); assay: fluorescence polarisation; details: both partners purified
T8 construct: also called SpPBP2a^Arg31Lys,Arg33Lys; source: E. coli, His-tagged MBP fusion purified (Ni-NTA), labelled, TEV-cleaved, ultrafiltration
T8 peptide: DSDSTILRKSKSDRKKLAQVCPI

[12] = biological target: Fluorescein-SpPBP2b1-17 (S. pneumoniae R6); assay: fluorescence polarisation; GpsB protein titrated into TAMRA- or fluorescein-labelled peptide; 10 mM Tris.HCl pH 8.0, 250 mM NaCl, 0.1% reduced Triton X-100; all data fitted to a 1:1 interaction model, Kd ± standard error
[13] = biological target: T9, SpPBP2a_(23-45), TAMRA-labelled (S. pneumoniae R6, UniProt Q8DNB6 23-45, Gly43 to cysteine, TAMRA (maleimide) label); assay: fluorescence polarisation; details: both partners purified
T9 construct: source: E. coli, His-tagged MBP fusion purified (Ni-NTA), labelled, TEV-cleaved, ultrafiltration
T9 peptide: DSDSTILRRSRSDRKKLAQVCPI

[14] = biological target: T10, full-length BsPBP1 (Bacillus subtilis PBP1) (B. subtilis, UniProt P39793 1-914); assay: SPR; details: both partners purified
T10 construct: also called wild-type BsPBP1; source: E. coli, purified from membrane pellets (His select resin, thrombin, Superdex S200)
T10 sequence (looked up): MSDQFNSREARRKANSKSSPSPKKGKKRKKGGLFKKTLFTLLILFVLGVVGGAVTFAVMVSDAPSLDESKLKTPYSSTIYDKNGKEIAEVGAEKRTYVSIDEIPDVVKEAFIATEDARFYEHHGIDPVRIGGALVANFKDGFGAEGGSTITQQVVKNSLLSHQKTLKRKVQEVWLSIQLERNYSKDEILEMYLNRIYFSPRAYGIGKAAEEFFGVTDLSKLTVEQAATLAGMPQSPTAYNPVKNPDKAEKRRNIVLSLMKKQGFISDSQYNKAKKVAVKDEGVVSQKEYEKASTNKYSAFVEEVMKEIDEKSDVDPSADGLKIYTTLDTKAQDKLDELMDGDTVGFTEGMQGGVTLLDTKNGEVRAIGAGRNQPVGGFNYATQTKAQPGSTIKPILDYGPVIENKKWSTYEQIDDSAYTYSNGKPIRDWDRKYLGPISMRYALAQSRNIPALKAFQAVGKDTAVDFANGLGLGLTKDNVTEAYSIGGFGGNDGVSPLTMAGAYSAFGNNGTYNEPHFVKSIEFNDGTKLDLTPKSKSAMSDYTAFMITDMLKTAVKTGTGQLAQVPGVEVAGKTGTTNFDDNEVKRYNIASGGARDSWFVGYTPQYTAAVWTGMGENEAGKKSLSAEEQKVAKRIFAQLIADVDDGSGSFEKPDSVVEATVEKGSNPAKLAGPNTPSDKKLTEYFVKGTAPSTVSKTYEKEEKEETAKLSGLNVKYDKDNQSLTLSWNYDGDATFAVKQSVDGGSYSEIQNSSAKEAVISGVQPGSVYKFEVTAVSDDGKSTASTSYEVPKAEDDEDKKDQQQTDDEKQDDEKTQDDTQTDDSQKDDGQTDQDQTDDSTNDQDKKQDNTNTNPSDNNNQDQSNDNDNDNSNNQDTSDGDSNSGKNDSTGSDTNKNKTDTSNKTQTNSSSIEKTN

BsGpsB_(5-64) = biological target: T11, BsGpsB_(5-64) (B. subtilis 168, UniProt P0CI74 5-64); assay: crystal structure; co-crystallisation of GpsB N-terminal domain with PBP peptide, 1:5 molar ratio protein:peptide, room temperature; details: both partners purified
T11 construct: GpsB, Bacillus subtilis 168, residues 5-64; two molecules in the asymmetric unit; also called N-terminal domain of BsGpsB, termini truncated; source: E. coli, purified (Ni-NTA, TEV, Superdex 75); not shown: His6, N-terminal, cleaved
T11 sequence (looked up): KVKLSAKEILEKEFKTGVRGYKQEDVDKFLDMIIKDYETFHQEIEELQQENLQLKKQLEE

Binder: B1
- binding result [1]: binds

B2: SpPBP2a_(27-40) (peptide, UniProt Q8DNB6 27-40, looked up)
peptide: TILRRSRSDRKKLA
notes: PBP2a, Streptococcus pneumoniae, residues 27-40; also called 14-residue peptide of SpPBP2a; source: synthetic peptide
- binding result (SpGpsB_(4-63)): binds

B3: BsPBP1_(1-32), TAMRA-labelled at position 16 (peptide, UniProt P39793 1-32, looked up)
peptide: MSDQFNSREARRKANC(TAMRA (maleimide))KSSPSPKKGKKRKKGG
notes: PBP1, Bacillus subtilis, residues 1-32; also called BsPBPA1_(1-32); BsPBP1A_(1-32); source: E. coli, His-tagged MBP fusion purified (Ni-NTA), labelled, TEV-cleaved, ultrafiltration
- binding result [2]: binds
- binding result (BsGpsB_(1-68) [3]): binds

Binder: B4
- fold reduction in affinity against wild type [4]: ≥ 5 fold
- fold reduction in affinity against wild type [5]: ≥ 6 fold
- fold reduction in affinity against wild type [6]: ≥ 5 fold
- fold reduction in affinity against wild type [7]: ≥ 5 fold
- fold reduction in affinity against wild type [8]: ≥ 6 fold

B5: BsYpbE_(1-21), fluorescein-labelled (peptide)
peptide: MTNMSRVERRKAQNLYEDQNA
modifications: also: fluorescein label, position not given here
notes: also called 21-residue fragment of the cytoplasmic domain of BsYpbE; source: synthetic peptide
- Kd (BsGpsB_(1-68) [9]): 13 µM

B6: SpGpsB_(1-63) (domain or fragment)
chain: MASIIFSAKDIFEQEFGREVRGYNKVEVDEFLDDVIKDYETYAALVKSLRQEIADLKEELTRK
notes: GpsB, Streptococcus pneumoniae R6, residues 1-63 (stop codon in place of Pro64); also called N-terminal domain of SpGpsB; wildtype SpGpsB_(1-63); source: E. coli, purified (Ni-NTA, thrombin, ammonium sulphate precipitation, gel filtration)
- fold reduction in affinity against wild type [10]: 2 fold
- fold reduction in affinity against wild type [11]: > 25 fold
- Kd [12]: > 3.6 mM

B7: SpGpsB_(1-63)^Asp33Ala (domain or fragment)
chain: MASIIFSAKDIFEQEFGREVRGYNKVEVDEFLADVIKDYETYAALVKSLRQEIADLKEELTRK
notes: also called SpGpsB^Asp33Ala; source: E. coli, purified (Ni-NTA, thrombin, ammonium sulphate precipitation, gel filtration)
- fold reduction in affinity against wild type [13]: ~40 fold

B8: BsYrrS_(Δ13-16) (natural protein)
chain: MSNNQSRYENRDANLVLNILIAIVSILIVVVAANLFINSPSSKDVSKDSETAQKQESPASGKTEKKSDEDIKDSKKDTSDSEKDSEKSSDSDSKKDDSSSKKDDSDSDSSSDSAGDGLKDAKVTEGGSSSDVEKTYENPDWKAVGTEQTGEHAATYDSSSQDWAEMLKAISYATGVSTDNMTVLWLGNNGSPQDAKGKILDKATGNKYQVTITWVDEKGWKPTKVEKLK
notes: source: E. coli BL21(DE3), purified from membranes (Ni-NTA, Superdex 200)
- Kd [14]: 20 nM

B9: BsPBP1_(1-17) (peptide, UniProt P39793 1-17, looked up)
peptide: MSDQFNSREARRKANSK
notes: PBP1, Bacillus subtilis, residues 1-17; also called first 17 amino acids of BsPBP1; source: synthetic peptide
- binding result (BsGpsB_(5-64)): binds
